# Experimental data: the supplement of paper PMC9112550, “Optimization of the antimicrobial peptide Bac7 by deep mutational scanning” (BMC Biology, 2022)
# System: Escherichia coli TOP10
# Test: shrunken log2 fold change of peptide-encoding DNA abundance (4.5 h post-induction vs induction); higher = less antimicrobial activity (less host growth inhibition)
# Details: time post-induction: 4.5 h; library: site-saturation at positions 5, 18, 19, 20
# 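Further: peptides expressed intracellularly from a pBAD plasmid library in pooled LB shake-flask culture, induced with 0.3% L-arabinose, DNA abundance read by NGS, three biological replicates, DESeq2 with apeglm shrinkage.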
sequence,measurement,value
RRIRLRPPRLPRPRPRPFTGPRP,shrunken log2 fold change,-0.204
RRIRARPPRLPRPRPRPLLYPRP,shrunken log2 fold change,0.09
RRIRYRPPRLPRPRPRPAIIPRP,shrunken log2 fold change,-0.244
RRIRPRPPRLPRPRPRPLSIPRP,shrunken log2 fold change,-0.498
RRIRSRPPRLPRPRPRPVAYPRP,shrunken log2 fold change,-0.0936
RRIRCRPPRLPRPRPRPDWNPRP,shrunken log2 fold change,-0.523
RRIRMRPPRLPRPRPRPESRPRP,shrunken log2 fold change,2.68
RRIRARPPRLPRPRPRPRDTPRP,shrunken log2 fold change,0.673
RRIRIRPPRLPRPRPRPNHTPRP,shrunken log2 fold change,-0.541
RRIRRRPPRLPRPRPRPSMTPRP,shrunken log2 fold change,0.315
RRIRERPPRLPRPRPRPIVEPRP,shrunken log2 fold change,0.0517
RRIRLRPPRLPRPRPRPYKIPRP,shrunken log2 fold change,-0.0766
RRIRTRPPRLPRPRPRPCPKPRP,shrunken log2 fold change,0.0604
RRIRVRPPRLPRPRPRPCLCPRP,shrunken log2 fold change,-0.491
RRIRSRPPRLPRPRPRPTIPPRP,shrunken log2 fold change,-0.104
RRIRTRPPRLPRPRPRPYMFPRP,shrunken log2 fold change,-0.776
RRIRLRPPRLPRPRPRPTIAPRP,shrunken log2 fold change,-0.183
RRIRIRPPRLPRPRPRPYKIPRP,shrunken log2 fold change,-0.688
RRIRLRPPRLPRPRPRPMHVPRP,shrunken log2 fold change,-0.0348
RRIRMRPPRLPRPRPRPTIHPRP,shrunken log2 fold change,-0.134
RRIRQRPPRLPRPRPRPHACPRP,shrunken log2 fold change,-0.0973
RRIRIRPPRLPRPRPRPQTWPRP,shrunken log2 fold change,-0.169
RRIRLRPPRLPRPRPRPYKLPRP,shrunken log2 fold change,-0.0961
RRIRERPPRLPRPRPRPMDDPRP,shrunken log2 fold change,-0.015
RRIRKRPPRLPRPRPRPERNPRP,shrunken log2 fold change,0.683
RRIRVRPPRLPRPRPRPKYLPRP,shrunken log2 fold change,-0.308
RRIRGRPPRLPRPRPRPREDPRP,shrunken log2 fold change,1.47
RRIRDRPPRLPRPRPRPIRYPRP,shrunken log2 fold change,-0.103
RRIRKRPPRLPRPRPRPIVSPRP,shrunken log2 fold change,-0.0354
RRIRSRPPRLPRPRPRPMSFPRP,shrunken log2 fold change,-0.374
RRIRERPPRLPRPRPRPQPRPRP,shrunken log2 fold change,0.328
RRIRRRPPRLPRPRPRPYTVPRP,shrunken log2 fold change,-0.325
RRIRSRPPRLPRPRPRPFMIPRP,shrunken log2 fold change,-0.184
RRIRDRPPRLPRPRPRPGWPPRP,shrunken log2 fold change,0.514
RRIRLRPPRLPRPRPRPTGYPRP,shrunken log2 fold change,-0.206
RRIRCRPPRLPRPRPRPAKSPRP,shrunken log2 fold change,0.448
RRIRPRPPRLPRPRPRPCLGPRP,shrunken log2 fold change,-0.198
RRIRFRPPRLPRPRPRPLPDPRP,shrunken log2 fold change,0.138
RRIRTRPPRLPRPRPRPSYLPRP,shrunken log2 fold change,-0.416
RRIRLRPPRLPRPRPRPWKVPRP,shrunken log2 fold change,0.0854
RRIRHRPPRLPRPRPRPAMKPRP,shrunken log2 fold change,0.0279
RRIRQRPPRLPRPRPRPPACPRP,shrunken log2 fold change,0.162
RRIRHRPPRLPRPRPRPQMKPRP,shrunken log2 fold change,-0.553
RRIRFRPPRLPRPRPRPRYAPRP,shrunken log2 fold change,0.148
RRIRKRPPRLPRPRPRPGATPRP,shrunken log2 fold change,1.09
RRIRSRPPRLPRPRPRPHDTPRP,shrunken log2 fold change,-0.156
RRIRCRPPRLPRPRPRPEYRPRP,shrunken log2 fold change,-0.00301
RRIRQRPPRLPRPRPRPKYTPRP,shrunken log2 fold change,-0.776
RRIRPRPPRLPRPRPRPMLRPRP,shrunken log2 fold change,0.34
RRIRARPPRLPRPRPRPYQEPRP,shrunken log2 fold change,0.0175
RRIRNRPPRLPRPRPRPSVVPRP,shrunken log2 fold change,-0.0462
RRIRTRPPRLPRPRPRPHVDPRP,shrunken log2 fold change,0.0574
RRIRFRPPRLPRPRPRPLVRPRP,shrunken log2 fold change,-0.102
RRIRWRPPRLPRPRPRPKSVPRP,shrunken log2 fold change,-0.0882
RRIRDRPPRLPRPRPRPFLRPRP,shrunken log2 fold change,0.00895
RRIRNRPPRLPRPRPRPISQPRP,shrunken log2 fold change,-0.261
RRIRLRPPRLPRPRPRPKHSPRP,shrunken log2 fold change,-0.107
RRIRMRPPRLPRPRPRPDPSPRP,shrunken log2 fold change,-0.0334
RRIRNRPPRLPRPRPRPYTKPRP,shrunken log2 fold change,-0.0607
RRIRDRPPRLPRPRPRPPPAPRP,shrunken log2 fold change,0.924
RRIRLRPPRLPRPRPRPFRAPRP,shrunken log2 fold change,0.113
RRIRLRPPRLPRPRPRPDLTPRP,shrunken log2 fold change,0.169
RRIRERPPRLPRPRPRPMAFPRP,shrunken log2 fold change,0.099
RRIRSRPPRLPRPRPRPQQQPRP,shrunken log2 fold change,-0.0954
RRIRCRPPRLPRPRPRPILNPRP,shrunken log2 fold change,-0.431
RRIRLRPPRLPRPRPRPWPMPRP,shrunken log2 fold change,-0.0188
RRIRLRPPRLPRPRPRPYCPPRP,shrunken log2 fold change,-0.24
RRIRGRPPRLPRPRPRPIQNPRP,shrunken log2 fold change,0.0261
RRIRYRPPRLPRPRPRPWGWPRP,shrunken log2 fold change,-0.0384
RRIRYRPPRLPRPRPRPWAPPRP,shrunken log2 fold change,-0.289
RRIRSRPPRLPRPRPRPCDKPRP,shrunken log2 fold change,-0.324
RRIRCRPPRLPRPRPRPTPNPRP,shrunken log2 fold change,0.786
RRIRIRPPRLPRPRPRPWAWPRP,shrunken log2 fold change,-0.00783
RRIRTRPPRLPRPRPRPDWNPRP,shrunken log2 fold change,-0.39
RRIRMRPPRLPRPRPRPGSFPRP,shrunken log2 fold change,1.04
RRIRQRPPRLPRPRPRPWFMPRP,shrunken log2 fold change,-1.08
RRIRYRPPRLPRPRPRPKLLPRP,shrunken log2 fold change,-0.296
RRIRSRPPRLPRPRPRPMYNPRP,shrunken log2 fold change,-0.557
RRIRPRPPRLPRPRPRPGLIPRP,shrunken log2 fold change,-0.0104
RRIRDRPPRLPRPRPRPEMHPRP,shrunken log2 fold change,0.891
RRIRQRPPRLPRPRPRPDSEPRP,shrunken log2 fold change,0.138
RRIRKRPPRLPRPRPRPWHTPRP,shrunken log2 fold change,0.0104
RRIRYRPPRLPRPRPRPLELPRP,shrunken log2 fold change,0.0293
RRIRLRPPRLPRPRPRPWVIPRP,shrunken log2 fold change,-0.0649
RRIRPRPPRLPRPRPRPGEGPRP,shrunken log2 fold change,0.349
RRIRIRPPRLPRPRPRPKWNPRP,shrunken log2 fold change,-0.454
RRIRSRPPRLPRPRPRPHKAPRP,shrunken log2 fold change,-0.1
RRIRYRPPRLPRPRPRPMKWPRP,shrunken log2 fold change,0.00957
RRIRHRPPRLPRPRPRPSEMPRP,shrunken log2 fold change,-0.0714
RRIRLRPPRLPRPRPRPQKIPRP,shrunken log2 fold change,0.0459
RRIRVRPPRLPRPRPRPSISPRP,shrunken log2 fold change,-0.357
RRIRARPPRLPRPRPRPYHDPRP,shrunken log2 fold change,-0.365
RRIRWRPPRLPRPRPRPADKPRP,shrunken log2 fold change,0.141
RRIRDRPPRLPRPRPRPQELPRP,shrunken log2 fold change,-0.238
RRIRARPPRLPRPRPRPYMRPRP,shrunken log2 fold change,-0.0199
RRIRPRPPRLPRPRPRPDICPRP,shrunken log2 fold change,0.0683
RRIRYRPPRLPRPRPRPNVIPRP,shrunken log2 fold change,-0.338
RRIRCRPPRLPRPRPRPFQWPRP,shrunken log2 fold change,-0.0999
RRIRKRPPRLPRPRPRPHCLPRP,shrunken log2 fold change,-0.0309
RRIRGRPPRLPRPRPRPEWCPRP,shrunken log2 fold change,1.19
RRIRTRPPRLPRPRPRPYAPPRP,shrunken log2 fold change,-1.07
RRIRSRPPRLPRPRPRPHRYPRP,shrunken log2 fold change,-0.606
RRIRPRPPRLPRPRPRPQKNPRP,shrunken log2 fold change,-0.169
RRIRARPPRLPRPRPRPAWEPRP,shrunken log2 fold change,0.925
RRIRKRPPRLPRPRPRPTHKPRP,shrunken log2 fold change,0.658
RRIRHRPPRLPRPRPRPGHSPRP,shrunken log2 fold change,-0.27
RRIRWRPPRLPRPRPRPEMWPRP,shrunken log2 fold change,1.05
RRIRWRPPRLPRPRPRPTNGPRP,shrunken log2 fold change,-0.134
RRIRARPPRLPRPRPRPSWEPRP,shrunken log2 fold change,0.162
RRIRIRPPRLPRPRPRPRCQPRP,shrunken log2 fold change,0.00087
RRIRLRPPRLPRPRPRPPQKPRP,shrunken log2 fold change,0.131
RRIRARPPRLPRPRPRPEEHPRP,shrunken log2 fold change,-0.0106
RRIRERPPRLPRPRPRPWRNPRP,shrunken log2 fold change,0.0891
RRIRYRPPRLPRPRPRPGRRPRP,shrunken log2 fold change,2.15
RRIRDRPPRLPRPRPRPYLVPRP,shrunken log2 fold change,-0.506
RRIRWRPPRLPRPRPRPAILPRP,shrunken log2 fold change,0.0915
RRIRPRPPRLPRPRPRPPWIPRP,shrunken log2 fold change,-0.0483
RRIRWRPPRLPRPRPRPDGEPRP,shrunken log2 fold change,0.0237
RRIRDRPPRLPRPRPRPAYTPRP,shrunken log2 fold change,-0.00595
RRIRQRPPRLPRPRPRPLRPPRP,shrunken log2 fold change,0.699
RRIRLRPPRLPRPRPRPIPWPRP,shrunken log2 fold change,0.0447
RRIRQRPPRLPRPRPRPPLYPRP,shrunken log2 fold change,0.233
RRIRNRPPRLPRPRPRPSLEPRP,shrunken log2 fold change,-0.208
RRIRSRPPRLPRPRPRPYNVPRP,shrunken log2 fold change,0.00567
RRIRARPPRLPRPRPRPCCGPRP,shrunken log2 fold change,0.525
RRIRQRPPRLPRPRPRPKGMPRP,shrunken log2 fold change,0.0157
RRIRIRPPRLPRPRPRPAATPRP,shrunken log2 fold change,0.0455
RRIRDRPPRLPRPRPRPRLDPRP,shrunken log2 fold change,0.173
RRIRRRPPRLPRPRPRPQSEPRP,shrunken log2 fold change,0.0256
RRIRKRPPRLPRPRPRPHWYPRP,shrunken log2 fold change,0.0533
RRIRGRPPRLPRPRPRPQIPPRP,shrunken log2 fold change,0.25
RRIRNRPPRLPRPRPRPKKDPRP,shrunken log2 fold change,0.0489
RRIRARPPRLPRPRPRPNHCPRP,shrunken log2 fold change,0.956
RRIRYRPPRLPRPRPRPKCIPRP,shrunken log2 fold change,-0.154
RRIRPRPPRLPRPRPRPRNHPRP,shrunken log2 fold change,-0.196
RRIRFRPPRLPRPRPRPQAYPRP,shrunken log2 fold change,-0.0572
RRIRNRPPRLPRPRPRPYLQPRP,shrunken log2 fold change,-0.00906
RRIRMRPPRLPRPRPRPTPNPRP,shrunken log2 fold change,0.87
RRIRKRPPRLPRPRPRPMLHPRP,shrunken log2 fold change,0.164
RRIRARPPRLPRPRPRPAHNPRP,shrunken log2 fold change,0.155
RRIRKRPPRLPRPRPRPSFHPRP,shrunken log2 fold change,-0.219
RRIRRRPPRLPRPRPRPGCHPRP,shrunken log2 fold change,0.119
RRIRVRPPRLPRPRPRPTESPRP,shrunken log2 fold change,-0.00266
RRIRRRPPRLPRPRPRPAPVPRP,shrunken log2 fold change,1.06
RRIRRRPPRLPRPRPRPMKWPRP,shrunken log2 fold change,0.016
RRIRWRPPRLPRPRPRPYAFPRP,shrunken log2 fold change,0.107
RRIRFRPPRLPRPRPRPEFAPRP,shrunken log2 fold change,-0.175
RRIRQRPPRLPRPRPRPVSGPRP,shrunken log2 fold change,0.179
RRIRCRPPRLPRPRPRPARVPRP,shrunken log2 fold change,0.453
RRIRKRPPRLPRPRPRPENLPRP,shrunken log2 fold change,3.46
